Test results taken from patent US20110118131A1 (published 2011).

B1: XPA23 heavy chain D106I (Fab, V domains shown)
VH: EVQLLESGGGLVQPGGSLRLSCAASGFTFSKYFMFWVRQAPGKGLEWVSVISPSGGMTRYADSVKGRFTISRDNSKNTLYLQMNSLRAEDTAVYYCARVGYGGNSIYWGQGTLVTVSS
VL: DIQMTQSPSSVSASVGDRLTIICRASQDINRWLAWYQQTPGNAPKLLIHSATSLQSGVPSRFSGSGSGTDFTLTINSLQPEDFATYYCQQADSFPLTFGGGTKVEIK
notes: Fab, periplasmic extract; also called C5A D106I
B2: XPA23 heavy chain D106T (Fab, V domains shown)
VH: EVQLLESGGGLVQPGGSLRLSCAASGFTFSKYFMFWVRQAPGKGLEWVSVISPSGGMTRYADSVKGRFTISRDNSKNTLYLQMNSLRAEDTAVYYCARVGYGGNSTYWGQGTLVTVSS
VL: DIQMTQSPSSVSASVGDRLTIICRASQDINRWLAWYQQTPGNAPKLLIHSATSLQSGVPSRFSGSGSGTDFTLTINSLQPEDFATYYCQQADSFPLTFGGGTKVEIK
notes: Fab, periplasmic extract; also called C5A D106T
B3: XPA23 heavy chain G100L (Fab, V domains shown)
VH: EVQLLESGGGLVQPGGSLRLSCAASGFTFSKYFMFWVRQAPGKGLEWVSVISPSGGMTRYADSVKGRFTISRDNSKNTLYLQMNSLRAEDTAVYYCARVLYGGNSDYWGQGTLVTVSS
VL: DIQMTQSPSSVSASVGDRLTIICRASQDINRWLAWYQQTPGNAPKLLIHSATSLQSGVPSRFSGSGSGTDFTLTINSLQPEDFATYYCQQADSFPLTFGGGTKVEIK
notes: Fab, periplasmic extract; also called C5A G100L
B4: XPA23 heavy chain K31P (Fab, V domains shown)
VH: EVQLLESGGGLVQPGGSLRLSCAASGFTFSPYFMFWVRQAPGKGLEWVSVISPSGGMTRYADSVKGRFTISRDNSKNTLYLQMNSLRAEDTAVYYCARVGYGGNSDYWGQGTLVTVSS
VL: DIQMTQSPSSVSASVGDRLTIICRASQDINRWLAWYQQTPGNAPKLLIHSATSLQSGVPSRFSGSGSGTDFTLTINSLQPEDFATYYCQQADSFPLTFGGGTKVEIK
notes: Fab, periplasmic extract; also called C5A K31P
B5: XPA23 heavy chain G102L (Fab, V domains shown)
VH: EVQLLESGGGLVQPGGSLRLSCAASGFTFSKYFMFWVRQAPGKGLEWVSVISPSGGMTRYADSVKGRFTISRDNSKNTLYLQMNSLRAEDTAVYYCARVGYLGNSDYWGQGTLVTVSS
VL: DIQMTQSPSSVSASVGDRLTIICRASQDINRWLAWYQQTPGNAPKLLIHSATSLQSGVPSRFSGSGSGTDFTLTINSLQPEDFATYYCQQADSFPLTFGGGTKVEIK
notes: Fab, periplasmic extract; also called C5A G102L
B6: XPA23 heavy chain G102V (Fab, V domains shown)
VH: EVQLLESGGGLVQPGGSLRLSCAASGFTFSKYFMFWVRQAPGKGLEWVSVISPSGGMTRYADSVKGRFTISRDNSKNTLYLQMNSLRAEDTAVYYCARVGYVGNSDYWGQGTLVTVSS
VL: DIQMTQSPSSVSASVGDRLTIICRASQDINRWLAWYQQTPGNAPKLLIHSATSLQSGVPSRFSGSGSGTDFTLTINSLQPEDFATYYCQQADSFPLTFGGGTKVEIK
notes: Fab, periplasmic extract; also called C5A G102V
B7: XPA23 heavy chain G102A (Fab, V domains shown)
VH: EVQLLESGGGLVQPGGSLRLSCAASGFTFSKYFMFWVRQAPGKGLEWVSVISPSGGMTRYADSVKGRFTISRDNSKNTLYLQMNSLRAEDTAVYYCARVGYAGNSDYWGQGTLVTVSS
VL: DIQMTQSPSSVSASVGDRLTIICRASQDINRWLAWYQQTPGNAPKLLIHSATSLQSGVPSRFSGSGSGTDFTLTINSLQPEDFATYYCQQADSFPLTFGGGTKVEIK
notes: Fab, periplasmic extract; also called C5A G102A
B8: XPA23 heavy chain G100P (Fab, V domains shown)
VH: EVQLLESGGGLVQPGGSLRLSCAASGFTFSKYFMFWVRQAPGKGLEWVSVISPSGGMTRYADSVKGRFTISRDNSKNTLYLQMNSLRAEDTAVYYCARVPYGGNSDYWGQGTLVTVSS
VL: DIQMTQSPSSVSASVGDRLTIICRASQDINRWLAWYQQTPGNAPKLLIHSATSLQSGVPSRFSGSGSGTDFTLTINSLQPEDFATYYCQQADSFPLTFGGGTKVEIK
notes: Fab, periplasmic extract; also called C5A G100P
B9: XPA23 heavy chain G102P (Fab, V domains shown)
VH: EVQLLESGGGLVQPGGSLRLSCAASGFTFSKYFMFWVRQAPGKGLEWVSVISPSGGMTRYADSVKGRFTISRDNSKNTLYLQMNSLRAEDTAVYYCARVGYPGNSDYWGQGTLVTVSS
VL: DIQMTQSPSSVSASVGDRLTIICRASQDINRWLAWYQQTPGNAPKLLIHSATSLQSGVPSRFSGSGSGTDFTLTINSLQPEDFATYYCQQADSFPLTFGGGTKVEIK
notes: Fab, periplasmic extract; also called C5A G102P
B10: XPA23 heavy chain K31T (Fab, V domains shown)
VH: EVQLLESGGGLVQPGGSLRLSCAASGFTFSTYFMFWVRQAPGKGLEWVSVISPSGGMTRYADSVKGRFTISRDNSKNTLYLQMNSLRAEDTAVYYCARVGYGGNSDYWGQGTLVTVSS
VL: DIQMTQSPSSVSASVGDRLTIICRASQDINRWLAWYQQTPGNAPKLLIHSATSLQSGVPSRFSGSGSGTDFTLTINSLQPEDFATYYCQQADSFPLTFGGGTKVEIK
notes: Fab, periplasmic extract; also called C5A K31T
B11: XPA23 heavy chain I51P (Fab, V domains shown)
VH: EVQLLESGGGLVQPGGSLRLSCAASGFTFSKYFMFWVRQAPGKGLEWVSVPSPSGGMTRYADSVKGRFTISRDNSKNTLYLQMNSLRAEDTAVYYCARVGYGGNSDYWGQGTLVTVSS
VL: DIQMTQSPSSVSASVGDRLTIICRASQDINRWLAWYQQTPGNAPKLLIHSATSLQSGVPSRFSGSGSGTDFTLTINSLQPEDFATYYCQQADSFPLTFGGGTKVEIK
notes: Fab, periplasmic extract; also called C5A I51P
B12: XPA23 heavy chain D106L (Fab, V domains shown)
VH: EVQLLESGGGLVQPGGSLRLSCAASGFTFSKYFMFWVRQAPGKGLEWVSVISPSGGMTRYADSVKGRFTISRDNSKNTLYLQMNSLRAEDTAVYYCARVGYGGNSLYWGQGTLVTVSS
VL: DIQMTQSPSSVSASVGDRLTIICRASQDINRWLAWYQQTPGNAPKLLIHSATSLQSGVPSRFSGSGSGTDFTLTINSLQPEDFATYYCQQADSFPLTFGGGTKVEIK
notes: Fab, periplasmic extract; also called C5A D106L
B13: XPA23 heavy chain D106P (Fab, V domains shown)
VH: EVQLLESGGGLVQPGGSLRLSCAASGFTFSKYFMFWVRQAPGKGLEWVSVISPSGGMTRYADSVKGRFTISRDNSKNTLYLQMNSLRAEDTAVYYCARVGYGGNSPYWGQGTLVTVSS
VL: DIQMTQSPSSVSASVGDRLTIICRASQDINRWLAWYQQTPGNAPKLLIHSATSLQSGVPSRFSGSGSGTDFTLTINSLQPEDFATYYCQQADSFPLTFGGGTKVEIK
notes: Fab, periplasmic extract; also called C5A D106P
B14: XPA23 heavy chain D106V (Fab, V domains shown)
VH: EVQLLESGGGLVQPGGSLRLSCAASGFTFSKYFMFWVRQAPGKGLEWVSVISPSGGMTRYADSVKGRFTISRDNSKNTLYLQMNSLRAEDTAVYYCARVGYGGNSVYWGQGTLVTVSS
VL: DIQMTQSPSSVSASVGDRLTIICRASQDINRWLAWYQQTPGNAPKLLIHSATSLQSGVPSRFSGSGSGTDFTLTINSLQPEDFATYYCQQADSFPLTFGGGTKVEIK
notes: Fab, periplasmic extract; also called C5A D106V
B15: XPA23 heavy chain M57P (Fab, V domains shown)
VH: EVQLLESGGGLVQPGGSLRLSCAASGFTFSKYFMFWVRQAPGKGLEWVSVISPSGGPTRYADSVKGRFTISRDNSKNTLYLQMNSLRAEDTAVYYCARVGYGGNSDYWGQGTLVTVSS
VL: DIQMTQSPSSVSASVGDRLTIICRASQDINRWLAWYQQTPGNAPKLLIHSATSLQSGVPSRFSGSGSGTDFTLTINSLQPEDFATYYCQQADSFPLTFGGGTKVEIK
notes: Fab, periplasmic extract; also called C5A M57P

target: T1, IL-1β (UniProt P01584 117-269); assay: Biacore, Fab periplasmic extract; -1 = no binding by the table's footnote
T1 construct: Antigen of XPA23

| Binder | binding result |
| --- | --- |
| B1 | no binding |
| B2 | no binding |
| B3 | no binding |
| B4 | no binding |
| B5 | no binding |
| B6 | no binding |
| B7 | no binding |
| B8 | no binding |
| B9 | no binding |
| B10 | no binding |
| B11 | no binding |
| B12 | no binding |
| B13 | no binding |
| B14 | no binding |
| B15 | no binding |
